The results in this text go back to US6746859.

Data set [1] relates to T1, Gly-(Asp4)-Lys-βNA fluorogenic enterokinase substrate.
T1 sequence: GDDDDK

Data set [2] addresses T2, E. coli thioredoxin/human IL-11 fusion protein with enterokinase cleavage spacer (UniProt P20809).
T2 sequence: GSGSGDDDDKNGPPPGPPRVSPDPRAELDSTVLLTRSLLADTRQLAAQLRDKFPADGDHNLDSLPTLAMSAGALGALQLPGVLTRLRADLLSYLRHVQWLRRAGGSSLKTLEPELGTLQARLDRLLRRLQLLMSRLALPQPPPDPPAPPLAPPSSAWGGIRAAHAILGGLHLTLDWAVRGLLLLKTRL

With “bovine-derived enterokinase holoenzyme (heavy and light chains)”, the EFFICIENCY OF CLEAVAGE (relative molar activities) (relative molar activity) was determined as 1 in data set [1], 1 in data set [2] and 100 in the data set on Trypsinogen.
